These results are taken from the Immune Epitope Database (IEDB).

Assay [1] concerns the target HLA-A*02:01. The assay can be described thus: IEDB peptide-MHC binding, purified MHC/competitive/fluorescence; filed as Kd, often an IC50 or EC50 that approximates it; ≥ and ≤ were set here for values at or beyond the usual limits of such assays.
Assay [2] concerns the target HLA-A*02:01. In words: IEDB peptide-MHC binding, purified MHC/competitive/radioactivity; filed as Kd, often an IC50 or EC50 that approximates it; ≥ and ≤ were set here for values at or beyond the usual limits of such assays.
Another assay has as its target HLA-A*02:02. The assay is described as above.
Another assay deals with HLA-A*02:03. Described as above.
The target in a further assay is HLA-A*02:06. The description is as above.
Assay [3] deals with HLA-A*03:01. Described as above.
The target of the next assay is HLA-A*30:02. The description is as above.
Assay [4] deals with HLA-B*15:01. Described as above.
Another assay addresses HLA-A*01:01. The assay is described as above.
The next assay concerns the target HLA-A*11:01. The assay is described as above. Particulars: source organism: SARS coronavirus Tor2.
A further assay deals with HLA-A*23:01. The description is as above.
The target in the next assay is HLA-A*24:02. Described as above.
The next assay concerns the target HLA-A*26:01. The description is as above.
Another assay addresses HLA-A*29:02. The description is as above.
Another assay has as its target HLA-A*31:01. Described as above. Particulars: source organism: SARS coronavirus Tor2.
Another assay concerns the target HLA-A*33:01. The description is as above. Particulars: source organism: SARS coronavirus Tor2.
The next assay has as its target HLA-A*68:01. The assay is described as above. The settings on record: source organism: SARS coronavirus Tor2.
The target in assay [5] is HLA-B*15:01. The assay can be described thus: IEDB peptide-MHC binding, purified MHC/competitive/fluorescence; filed as Kd, often an IC50 or EC50 that approximates it; ≥ and ≤ were set here for values at or beyond the usual limits of such assays.
A further assay addresses HLA-A*30:01. The assay can be described thus: IEDB peptide-MHC binding, purified MHC/competitive/radioactivity; filed as Kd, often an IC50 or EC50 that approximates it; ≥ and ≤ were set here for values at or beyond the usual limits of such assays.
The target of the next assay is HLA-A*32:01. The assay is described as above.
Assay [6] deals with HLA-A*03:01. The assay can be described thus: IEDB peptide-MHC binding, purified MHC/direct/fluorescence; filed as Kd, often an IC50 or EC50 that approximates it; ≥ and ≤ were set here for values at or beyond the usual limits of such assays. Particulars: source organism: SARS-CoV1.
A further assay addresses HLA-A*69:01. The description is as above. Particulars: source organism: SARS-CoV1.
Assay [7] has as its target HLA-B*15:01. Described as above. Particulars: source organism: SARS-CoV1.
The mark [8] stands for this setting: source organism: Vaccinia virus WR.
Setting [9] is: source organism: Dengue virus 4 Philippines/H241/1956.
[10] abbreviates: source organism: SARS coronavirus Tor2.
Setting [11] is: source organism: Mammarenavirus juninense.
Where [12] appears, read: source organism: Mammarenavirus guanaritoense.

Turning to AINVEKIEL, in the assay with HLA-A*02:01 [1] (setting [8]), the Kd was ≥ 20000 nM.

Consider ALCKVTVPT, for which the Kd was found to be 31 nM with HLA-A*02:01 [2] (setting [8]), 110 nM in the assay with HLA-A*02:02 (setting [8]), 130 nM with HLA-A*02:03 (setting [8]) and 210 nM with HLA-A*02:06 (setting [8]).

Take ALLAGFMAY: the values for the Kd with HLA-A*03:01 [3] (setting [9]), in the assay with HLA-A*30:02 (setting [9]) and with HLA-B*15:01 [4] (setting [9]) were 1.67 nM, 80 nM and 1.14 nM, respectively.

ANISTILYF: the Kd with HLA-B*15:01 [4] (setting [8]) was 128 nM.

As to AQGKPTLDF, the dissociation constant (Kd) with HLA-B*15:01 [4] (setting [9]) stood at 3.09 nM.

In the case of ATVAYFNMVY, the dissociation constant (Kd) with HLA-A*01:01 (setting [10]) was 893 nM; with HLA-A*03:01 [3] (setting [10]) it was 269 nM; with HLA-A*11:01, 74.2 nM; with HLA-A*23:01 (setting [10]), ≥ 30900 nM; with HLA-A*24:02 (setting [10]), 13000 nM; with HLA-A*26:01 (setting [10]), 979 nM. The equilibrium dissociation constant (Kd) is 0.00633 nM with HLA-A*29:02 (setting [10]); 1210 nM with HLA-A*30:02 (setting [10]); 2330 nM in the assay with HLA-A*31:01; ≥ 70000 nM with HLA-A*33:01; 549 nM with HLA-A*68:01.

As for EIFKHLVFF, in the assay with HLA-B*15:01 [4] (setting [8]), the dissociation constant (Kd) is 12.2 nM.

In the case of FIASKGVKLV, the Kd with HLA-A*02:01 [2] (source organism: Homo sapiens) worked out at 37 nM.

With FLETDAGRV, in the assay with HLA-A*02:01 [2] (source organism: Variola virus), the Kd was determined as 100 nM.

In turn, FQNWGIESI displayed an equilibrium dissociation constant (Kd) with HLA-A*02:01 [1] (source organism: Influenza A virus (A/Wilson-Smith/1933(H1N1))) of 2.3 nM.

Sequence FQTLMHSPF registered a Kd with HLA-B*15:01 [5] (source organism: Bacillus cereus G9241) of 23.1 nM.

Consider FSPRLCRPF, for which the Kd in the assay with HLA-B*15:01 [5] (source organism: Escherichia coli 536) stood at 325 nM.

Turning to GEKSRCYSIY, the Kd with HLA-A*01:01 (setting [11]) was 13900 nM; with HLA-A*23:01 (setting [11]), ≥ 70000 nM; with HLA-A*24:02 (setting [11]), ≥ 70300 nM; in the assay with HLA-A*26:01 (setting [11]), 18000 nM; with HLA-A*29:02 (setting [11]), ≥ 51800 nM; with HLA-A*30:01 (setting [11]), 2190 nM. For the same sequence, the Kd with HLA-A*30:02 (setting [11]) is 3160 nM; with HLA-A*32:01 (setting [11]), ≥ 69900 nM.

Regarding HTNFESFTV, the Kd with HLA-A*01:01 (setting [12]) was 440 nM; in the assay with HLA-A*23:01 (setting [12]) it was ≥ 48200 nM; with HLA-A*24:02 (setting [12]), ≥ 77500 nM; in the assay with HLA-A*26:01 (setting [12]) it was ≥ 36600 nM; with HLA-A*29:02 (setting [12]), 11200 nM; in the assay with HLA-A*30:01 (setting [12]), 182 nM. Further, the equilibrium dissociation constant (Kd) in the assay with HLA-A*30:02 (setting [12]) stood at 971 nM; with HLA-A*32:01 (setting [12]) it was 682 nM.

Regarding ILIEGVFFA, in the assay with HLA-A*02:01 [2] (source organism: Human alphaherpesvirus 2), the Kd was determined as 0.16 nM.

LIIICCVSG: the equilibrium dissociation constant (Kd) in the assay with HLA-B*15:01 [4] (source organism: Vaccinia virus Copenhagen) is 403 nM.

On to LIIMDEAHF, for which, in the assay with HLA-B*15:01 [4] (source organism: Dengue virus 2 Jamaica/1409/1983), the dissociation constant (Kd) was found to be 19 nM.

For the sequence LINNGKCTF, in the assay with HLA-B*15:01 [4] (setting [8]), the Kd amounted to 61.9 nM.

For LLALQQLEV, the Kd came to 2020 nM with HLA-A*03:01 [6]; 242 nM in the assay with HLA-A*69:01; 3790 nM in the assay with HLA-B*15:01 [7]; 2.7 nM in the assay with HLA-A*02:01 [1] (source organism: SARS-CoV1); 0.138 nM with HLA-A*02:02 (setting [10]); 0.295 nM in the assay with HLA-A*02:03 (setting [10]). Moreover, the equilibrium dissociation constant (Kd) in the assay with HLA-A*02:06 (setting [10]) turned out to be 41.9 nM.

Regarding LNINKNGSF, the dissociation constant Kd in the assay with HLA-B*15:01 [4] (setting [8]) is 479 nM.

Regarding LSEKWFTHA, the dissociation constant Kd in the assay with HLA-B*15:01 [4] (setting [8]) is 19100 nM.

On to LVEKVLKIL, for which the Kd with HLA-A*02:01 [1] (source organism: Vaccinia virus) came to 992 nM.
